Experimental data taken from patent US20230212587A1, “Mutant Hydroxyphenylpyruvate Dioxygenase Polypeptide, Encoding Gene Thereof and Use Therefor” (Beijing Dabeinong Biotechnology Co., Ltd., priority 2019, published 2023).
Substitutions are numbered along the chain they refer to. Names may count otherwise.

B1: CyHPPD-02: native Cyanobacteria HPPD, SEQ ID NO: 141 (protein)
chain: MEFDYLHLYVDDYQSAHRCYQRQWGFTCVNKIITDQGITGIYQQGQILLLISASESSLSRYADYLQKHPPGVGEVAWQVANWQKIQHQLSELQIETTPVIHPLTKAEGLTFLLWGDVHHSIYPVRSELNQNKTLHGVGLTTIDHVVLNIAADQFTQASQWYQQVFGWSVQQSFTVNTPHSGLYSEALASANGKVQFNLNCPTNNSSQIQTFLANNHGAGIQHVAFSTTSITRTVAHLRERGVNFLKIPTGYYQQQRNSSYFNYASLDWDTLQCLEILLDDQDNTGERLLLQIFSQPCYGVGTLFWEIIERRHRAKGFGQGNFQALYEAVETLEKQLEVP
modifications: CyHPPD Amino Acid Sequence (Cyanobacteria)
B2: CyHPPDm-F372A-02: Cyanobacteria HPPD mutant F372A, SEQ ID NO: 144 (protein)
chain: B1 chain with F293A
modifications: CyHPPDm-F372A Amino Acid Sequence
B3: StHPPD-02: native Solanum tuberosum HPPD, SEQ ID NO: 123 (protein, listed as Solanum tuberosum)
chain: MGKQAATATATATATADDQQLPADIEDKYKLVGFNNFVRTNPRSDLFNVKRFHHIEFWCGDATNTARRFSWGLGLPIAAKSDLSTGNSVHASYLLRSSSSQLQFLFTAPYSPAISTPSSSSIPTFSVSSHRSFTETHGLGVRAIALEVENSRLAFSTCVSHGAKPVSEPVILNDEVVISEVHLYGDVVLRFVSFLKDSNRFVFLPGFELVEGAQLDYGIRRLDHAVGNVPQLGPVVEYIKSFTGFHEFAEFTAEDVGTAESGLNSVVLANNDETVLFPLNEPVYGTKRKSQIQTYLEHNEGAGVQHLALVTEDIFRTLREMRKRSGIGGFEFMPSPPPTYYKNLKSRAGDILSDEQIKECEELGILVDRDDQGTLLQIFTKPVGDRPTIFLEIIQRIGCMLQNAEGELYQKGGCGGFGKGNFSELFKSIEEYEKTLEAKQNTQVAIA
modifications: StHPPD Amino Acid Sequence
B4: StHPPDm-F372A-02: Solanum tuberosum HPPD mutant F372A, SEQ ID NO: 126 (protein)
chain: B3 chain with F379A
modifications: StHPPDm-F372A Amino Acid Sequence
B5: S1HPPD-02: native Solanum lycopersicum HPPD, SEQ ID NO: 129 (protein)
chain: MGKQAAAAADDQQLPGDIEDKFKLVGFNHFVRTNPRSDFFTVKRFHHIEFWCGDATNTARRFSWGLGLPIAAISDLSTGNSVHASYLLRSSSSSQLQFLFTAPYSSAISTSSSASIPTFSVSSHRSFTATHGLGVRAIALEVENSRLAFSTCVAHGAKPVSEPVILNDEVVIAEVHLYGDVVLRFVSFLKDSNCFVFLPGFESVEGAQLDYGIRRLDHAVGNVPELGPVVEYIKSFTGFHEFAEFTAEDVGTAESGLNSVVLANNDETVLFPLNEPVYGTKRKSQIQTYLEHNEGAGVQHLALVTEDIFRTLREMRKRSGIGGFEFMPSPPPTYYKNLKTRAGDILSDEQIQECEELGILVDRDDQGTLLQIFTKPVGDRPTIFLEIIQRIGCMLKNEEGELYQKGGCGGFGKGNFSELFKSIEEYEKTLEAKQNTQVAIA
modifications: SlHPPD Amino Acid Sequence (Solanum lycopersicum)
B6: S1HPPDm-F372A-02: Solanum lycopersicum HPPD mutant F372A, SEQ ID NO: 132 (protein)
chain: B5 chain with F373A
modifications: SlHPPDm-F372A Amino Acid Sequence
B7: AhHPPD-02: native Arachis hypogaea HPPD, SEQ ID NO: 135 (protein, listed as Arachis hypogaea)
chain: MATAYTYAHAVTYCNSQHNPPIIPILSTNQHPPRVTLPSSIPHFISTITTFNLKHFPSHSLHTVMVTQTQQNAPSSSPELGFKLVGFKNFVRTNPKSDRFKVIRFHHVEFWCTDATNTASRFSWGLGMPIVAKSDLSTGNAVHASYLLRSGDLNFLFSAPYSASIAGDGASASFPSFSASDCHSFAAKHGLAVRAVAIEVEDASAAFSASVANGAKPVSPAVLLDNSVGFAEVHLYGDVVLRYISYSAPTRESNLNPTLRFLPGFEAVEADSSFPELDYGIRRLDHAVGNVPELAPAVNYLKKFTGFHEFAEFTAEDVGTSESGLNSVVLASNDEMVLLPLNEPVYGTKRKSQIETYLEHNEGAGLQHLALVSEDIFRTLREMRKRSTIGGFQFMPSPPPTYYRNLKKRAGDVLSDEQIKECEELGILVDRDDQGTLLQIFTKPVGDRPTIFIEIIQRIGCMLKDEEGKVYQKGGCGGFGKGNFSELFKSIEEYEKTLESRRTA
modifications: AhHPPD Amino Acid Sequence
B8: AhHPPDm-F372A-02: Arachis hypogaea HPPD mutant F372A, SEQ ID NO: 138 (protein)
chain: B7 chain with F441A
modifications: AhHPPDm-F372A Amino Acid Sequence

tested on: Arabidopsis thaliana T1 plants; assay: Topramezone tolerance of transgenic Arabidopsis thaliana T1 plants (pesticide damage grade by bleached leaf area, score, resistance evaluation); type: in vivo; conditions: HPPDs from different species; number of plants (of 16) in this grade; topramezone 25 g ai/ha (1x), 7 DAT
Procedure, shortened: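 Eighteen days after sowing, wild-type and HPPD-transgenic T1 Arabidopsis receive a topramezone spray at 1×, 2× or 4× field rate (25–100 g ai/ha) or water. Seven days later each plant is graded by its proportion of bleached leaf area.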

Row | Molecule | Classification and statistics of pesticide damage grade Grade 0 | Classification and statistics of pesticide damage grade Grade 1 | Classification and statistics of pesticide damage grade Grade 2 | Classification and statistics of pesticide damage grade Grade 3
1 | B1 | 0 | 0 | 0 | 0
2 | B2 | 1 | 14 | 1 | 0
3 | B3 | 0 | 0 | 0 | 16
4 | B4 | 4 | 12 | 0 | 0
5 | B5 | 0 | 0 | 0 | 16
6 | B6 | 1 | 1 | 14 | 0
7 | B7 | 0 | 0 | 0 | 16
8 | B8 | 2 | 12 | 2 | 0

same assay, conditions: HPPDs from different species; number of plants (of 16) in this grade; topramezone 100 g ai/ha (4x), 7 DAT

Row | Molecule | Classification and statistics of pesticide damage grade Grade 0 | Classification and statistics of pesticide damage grade Grade 1 | Classification and statistics of pesticide damage grade Grade 2 | Classification and statistics of pesticide damage grade Grade 3
9 | B1 | 0 | 0 | 0 | 0
10 | B2 | 0 | 1 | 15 | 0
11 | B3 | 0 | 0 | 0 | 16
12 | B4 | 0 | 1 | 4 | 11
13 | B5 | 0 | 0 | 0 | 16
14 | B6 | 0 | 1 | 4 | 11
15 | B7 | 0 | 0 | 0 | 16
16 | B8 | 0 | 0 | 10 | 6

same assay, conditions: HPPDs from different species; score for pesticide damage 0-100; topramezone 25 g ai/ha (1x), 7 DAT

Row | Molecule | Scores
17 | B1 | 16
18 | B2 | 33
19 | B3 | 100
20 | B4 | 25
21 | B5 | 100
22 | B6 | 60
23 | B7 | 100
24 | B8 | 33

same assay, conditions: HPPDs from different species; score for pesticide damage 0-100; topramezone 100 g ai/ha (4x), 7 DAT

Row | Molecule | Scores
25 | B1 | 16
26 | B2 | 65
27 | B3 | 100
28 | B4 | 88
29 | B5 | 100
30 | B6 | 88
31 | B7 | 100
32 | B8 | 79

same assay, conditions: HPPDs from different species; topramezone 25 g ai/ha (1x), 7 DAT

Row | Molecule | Resistance evaluation
33 | B1 | non-resistant (non-resistant plants (scores 68-100))
34 | B2 | moderately resistant (moderately resistant plants (scores 16-33))
35 | B3 | non-resistant (non-resistant plants (scores 68-100))
36 | B4 | moderately resistant (moderately resistant plants (scores 16-33))
37 | B5 | non-resistant (non-resistant plants (scores 68-100))
38 | B6 | poorly resistant (poorly resistant plants (scores 34-67))
39 | B7 | non-resistant (non-resistant plants (scores 68-100))
40 | B8 | moderately resistant (moderately resistant plants (scores 16-33))

same assay, conditions: HPPDs from different species; topramezone 100 g ai/ha (4x), 7 DAT

Row | Molecule | Resistance evaluation
41 | B1 | non-resistant (non-resistant plants (scores 68-100))
42 | B2 | poorly resistant (poorly resistant plants (scores 34-67))
43 | B3 | non-resistant (non-resistant plants (scores 68-100))
44 | B4 | non-resistant (non-resistant plants (scores 68-100))
45 | B5 | non-resistant (non-resistant plants (scores 68-100))
46 | B6 | non-resistant (non-resistant plants (scores 68-100))
47 | B7 | non-resistant (non-resistant plants (scores 68-100))
48 | B8 | non-resistant (non-resistant plants (scores 68-100))
